Data set [1] deals with ParB 65–139 (C-terminal DNA-binding RHH domain of pCXC100 ParB) (Leifsonia xyli subsp. cynodontis (plasmid pCXC100)) (UniProt Q6ABV9). Nature of the data set: crystal structure.
Data set [2] addresses T1, ParB 65-139 (RHH domain) (Leifsonia xyli subsp. cynodontis …, UniProt Q6EEF9 65-139).
T1 sequence: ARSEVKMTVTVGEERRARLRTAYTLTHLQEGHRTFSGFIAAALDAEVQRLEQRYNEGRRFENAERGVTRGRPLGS
Nature of the data set: ITC.

Data set [3] concerns the target T1, ParB 65-139 (RHH domain). Nature of the data set: ITC. This is another data set of the same source. In general terms: ITC needs no label: the signal is the heat of the interaction.
In data set [4] the target is T1, ParB 65-139 (RHH domain). Nature of the data set: EMSA. (In general: A gel shift assay detects complexes by their altered migration in electrophoresis.)
The target in data set [5] is T1, ParB 65-139 (RHH domain). Nature of the data set: ITC. This is another data set of the same source.
Data set [6] deals with T1, ParB 65-139 (RHH domain). Nature of the data set: EMSA. The source holds these as a separate data set.
The target of data set [7] is T1, ParB 65-139 (RHH domain). Nature of the data set: ITC. This is another data set of the same source.
Data set [8] deals with T1, ParB 65-139 (RHH domain). Nature of the data set: ITC. The source holds these as a separate data set.
Data set [9] addresses T1, ParB 65-139 (RHH domain). Nature of the data set: ITC. The source holds these as a separate data set.
Data set [10] addresses T1, ParB 65-139 (RHH domain). Nature of the data set: EMSA. This is another data set of the same source.
Data set [11] addresses T1, ParB 65-139 (RHH domain). Nature of the data set: EMSA. This is another data set of the same source.
Data set [12] addresses T1, ParB 65-139 (RHH domain). Nature of the data set: ITC. The source holds these as a separate data set.
The target of data set [13] is T1, ParB 65-139 (RHH domain). Nature of the data set: EMSA. The source holds these as a separate data set.
Data set [14] has as its target T1, ParB 65-139 (RHH domain). Nature of the data set: EMSA. This is another data set of the same source.
The target of data set [15] is T1, ParB 65-139 (RHH domain). Nature of the data set: EMSA. This is another data set of the same source.

In general, stoichiometry N refers to the number of molecules, sites or subunits per partner or assembly. Turning to “ParB 65–139 (C-terminal DNA-binding RHH domain of pCXC100 ParB) (from UniProt Q6ABV9 65-139) (domain or fragment)”, the stoichiometry N in data set [1] amounted to 2.

B1: R4-18 (dsDNA)
DNA 1: GGAAAAGCCAGAAACAGT
DNA 2: ACTGTTTCTGGCTTTTCC
The term Kd denotes the constant that tells how readily two partners part at equilibrium. High values mean weaker binding, low ones tighter binding. In the case of B1, the Kd in [2] amounted to 0.087 ± 0.059 µM; in data set [3], 0.06 ± 0.012 µM.

B2: 1R3'-18 (dsDNA)
DNA 1: GGAAAAGGTGGAAAAGGT
DNA 2: ACCTTTTCCACCTTTTCC
For B2, in data set [4], the binding result is reported as “binds”.

B3: R3-18 (dsDNA)
DNA 1: GGAATAGGTGGAAAAGCC
DNA 2: GGCTTTTCCACCTATTCC
Consider B3, for which the results for the Kd in data set [2], in data set [3] and in [5] were 0.031 ± 0.012 µM, 0.037 ± 0.01 µM and 0.03 ± 0.01 µM, respectively.

B4: R4-18-2 (dsDNA)
DNA 1: GTGGAAAAGCCAGAAACA
DNA 2: TGTTTCTGGCTTTTCCAC
As for B4, the binding result in data set [6] is “binds”.

B5: R3-18-10A (dsDNA)
DNA 1: GGAATAGGTAGAAAAGCC
DNA 2: GGCTTTTCTACCTATTCC
B5 returned a Kd in data set [7] of 0.03 ± 0.01 µM.

B6: R8-18 (dsDNA)
DNA 1: GGAAAAGCTGGAATTGTT
DNA 2: AACAATTCCAGCTTTTCC
In data set [8], B6 gave a Kd of 0.056 ± 0.012 µM.

B7: R0-18 (dsDNA)
DNA 1: TGCTCGATCTGGCTATCC
DNA 2: GGATAGCCAGATCGAGCA
As for B7, the binding result in data set [9] is on record as “no binding”.

B8: R4-18-3 (dsDNA)
DNA 1: GGTGGAAAAGCCAGAAAC
DNA 2: GTTTCTGGCTTTTCCACC
B8: in data set [6], the binding result is on record as “binds”.

B9: R4-14 (dsDNA)
DNA 1: AAAAGCCAGAAACA
DNA 2: TGTTTCTGGCTTTT
On to B9, for which the binding result in [8] is reported as “no binding”.

B10: 2R3'-27 (dsDNA)
DNA 1: GGAAAAGGTGGAAAAGGTGGAAAAGGT
DNA 2: ACCTTTTCCACCTTTTCCACCTTTTCC
In data set [10], B10 gave a Kd of 0.112 µM.

B11: R4-18-1 (dsDNA)
DNA 1: TGGAAAAGCCAGAAACAG
DNA 2: CTGTTTCTGGCTTTTCCA
Take B11: the binding result in [11] is listed as “binds”.

B12: R9-18 (dsDNA)
DNA 1: GGAATTGTTTGCTACGGT
DNA 2: ACCGTAGCAAACAATTCC
As for B12, the Kd came out at 0.017 ± 0.006 µM in [12] and 0.011 ± 0.009 µM in [2].

B13: 2R6'-27 (dsDNA)
DNA 1: GGGTAAGATGGGTAAGATGGGTAAGAT
DNA 2: ATCTTACCCATCTTACCCATCTTACCC
B13 had a Kd in [13] of 0.877 µM.

B14: R2R3-18 (dsDNA)
DNA 1: AGTAGGAATAGGTGGAAA
DNA 2: TTTCCACCTATTCCTACT
Regarding B14, the binding result in data set [14] is on record as “binds”.

B15: R10-18 (dsDNA)
DNA 1: TGCTACGGTAGAACACGC
DNA 2: GCGTGTTCTACCGTAGCA
As for B15, in data set [9], the binding result is “no binding”.

B16: R2R3-27 (dsDNA)
DNA 1: AGTAAAGTAGGAATAGGTGGAAAAGCC
DNA 2: GGCTTTTCCACCTATTCCTACTTTACT
As to B16, in data set [15], the binding result is recorded as “binds”.

B17: R3-18-18G (dsDNA)
DNA 1: GGAATAGGTGGAAAAGCG
DNA 2: CGCTTTTCCACCTATTCC
As to B17, in data set [8], binding was characterised by a dissociation constant (Kd) of 0.07 ± 0.017 µM.

B18: R4-18+4 (dsDNA)
DNA 1: AAGCCAGAAACAGTGGGA
DNA 2: TCCCACTGTTTCTGGCTT
For the molecule B18, the binding result in data set [6] is given as “binds”.

B19: R4-18+1 (dsDNA)
DNA 1: GAAAAGCCAGAAACAGTG
DNA 2: CACTGTTTCTGGCTTTTC
With B19, the binding result in [11] is listed as “binds”.

B20: 1R6'-18 (dsDNA)
DNA 1: GGGTAAGATGGGTAAGAT
DNA 2: ATCTTACCCATCTTACCC
Take B20: the binding result in data set [4] was “binds”.

B21: R4-18+3 (dsDNA)
DNA 1: AAAGCCAGAAACAGTGGG
DNA 2: CCCACTGTTTCTGGCTTT
Take B21: the binding result in [6] is recorded as “binds”.

B22: R11-18 (dsDNA)
DNA 1: AGAACACGCCGAACGGCC
DNA 2: GGCCGTTCGGCGTGTTCT
As to B22, the binding result in [9] is “no binding”.

The record behind these values is publication PMC3074162.
